Data from patent US20260274981A1 (VIB VZW, published 2026).

T1: recombinant cynomolgus TfR (90253-C07H, Sino Biological), biotinylated (cynomolgus monkey, UniProt Q5RDH6 89-760 (Pongo abelii entry), biotinylated with EZ-Link NHS-PEG4-Biotinylation Kit)
T1 construct: Bought protein; also called immobilized recombinant cynomolgus TfR
T1 chain: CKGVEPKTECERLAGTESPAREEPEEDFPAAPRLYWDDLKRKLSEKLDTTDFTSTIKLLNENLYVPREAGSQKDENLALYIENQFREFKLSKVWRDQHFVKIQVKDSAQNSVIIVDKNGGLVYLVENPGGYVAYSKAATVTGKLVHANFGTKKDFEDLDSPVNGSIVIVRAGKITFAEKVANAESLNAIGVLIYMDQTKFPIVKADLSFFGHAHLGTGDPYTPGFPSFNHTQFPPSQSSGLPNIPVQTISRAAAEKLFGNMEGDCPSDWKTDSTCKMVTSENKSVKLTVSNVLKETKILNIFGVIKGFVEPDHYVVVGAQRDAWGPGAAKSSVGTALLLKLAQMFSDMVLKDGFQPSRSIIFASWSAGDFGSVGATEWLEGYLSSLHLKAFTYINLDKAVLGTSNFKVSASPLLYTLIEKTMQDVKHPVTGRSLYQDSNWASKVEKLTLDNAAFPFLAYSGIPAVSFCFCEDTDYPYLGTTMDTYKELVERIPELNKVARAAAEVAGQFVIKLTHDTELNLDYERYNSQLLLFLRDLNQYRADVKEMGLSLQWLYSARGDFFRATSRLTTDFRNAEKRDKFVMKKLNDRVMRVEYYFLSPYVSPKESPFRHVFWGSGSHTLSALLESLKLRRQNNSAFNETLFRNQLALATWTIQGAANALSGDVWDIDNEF


Tests used:
[1] = molecular target: T2, recombinant human TfR (2474-TR, R&D Systems), biotinylated (human, UniProt P02786 89-760, biotinylated with EZ-Link NHS-PEG4-Biotinylation Kit); experiment: SPR (Biacore T200), biotinylated human TfR captured on SA chip, VHH as analyte, single cycle kinetics
T2 construct: Bought protein; also called immobilized recombinant human TfR; biotinylated human TfR
From the text: (§1) Phage libraries generated after 4 biweekly immunizations of two different camelids, underwent two rounds of pannings on CHO cell lines overexpressing either cynomolgus TfR in the first round or human TfR in the second round. Output libraries were screened with flow cytometry to find binders to human TfR overexpressing cells (FIG. 1A). […] Binding kinetics to recombinant human and cynomolgus TfR were further characterized with Surface Plasmon Resonance (SPR).
(§2) Surface Plasmon Resonance (SPR) was used to measure the interaction between VHHs and human or cynomolgus TfR receptor. Human TfR (2474-TR, R&D Systems) and cynomolgus TfR (90253-C07H, Sino Biological) were biotinylated with the EZ-Link NHS-PEG4-Biotinylation Kit (ThermoFischer Scientific) according to the manufacturer instructions. The binding experiments were performed at 25° C. on a Biacore T200 instrument (Cytiva, Uppsala, Sweden) in HBS-EP+ buffer (10 mM HEPES, 150 mM NaCl, 3 mM EDTA and 0.05% v/v Surfactant P20). Biotinylated human TfR and cynomolgus TfR were captured on a SA sensor chip (Cytiva) at a density of around 250 RU. Increasing concentrations of VHHs were sequentially injected in one single cycle at a flow rate of 30 μl/min. The dissociation was monitored for 20 min. […] A reference flow was used as a control for non-specific binding and refractive index changes. Several buffer blanks were used for double referencing. […]

[2] = molecular target: T1, recombinant cynomolgus TfR (90253-C07H, …); experiment: SPR (Biacore T200), biotinylated cynomolgus TfR captured on SA chip, VHH as analyte, single cycle kinetics
From the text: as §1, §2

[3] = molecular target: T3, human TfR overexpressed on CHO cells (human, UniProt P02786 1-760); experiment: flow cytometry on CHO cells overexpressing human TfR (CHO-hTfR), VHH detected with anti-FLAG-iFluor647; median Flag-i647 intensity in total GFP cells
T3 construct: construct is TfR followed by an HA tag and IRES-GFP; also called hTfR; human transferrin receptor
Experimental: (§3) Output libraries were screened with flow cytometry to find binders to human TfR overexpressing cells (FIG. 1A). […] Binding kinetics to recombinant human and cynomolgus TfR were further characterized with Surface Plasmon Resonance (SPR).
(§4) Periplasmic extracts diluted 1:10 in PBS 2% FBS, or a dilution range of different VHH or bispecific antibody concentrations prepared in PBS 2% FBS, were incubated with 0.1 million CHO cells overexpressing either the human, cynomolgus or mouse TfR for 30 min at 4° C. As control for background binding, periplasmic extracts, VHHs or bispecific antibodies were also incubated with 0.1 million CHO cells overexpressing GFP. Binding of VHHs was next resolved by a second step 30 min incubation at 4° C. with an anti-FLAG-iFluor647 antibody (A01811, Genscript) diluted 1:500 for screening and 1:250 for validation assays, or with anti-human IgG Fc-Alexa Fluor647 antibody (410714, BioLegend) diluted 1:200. […] Cells were fixed with 4% paraformaldehyde before being analyzed. Flp-In™-CHO™ cells used as unstained control and single stain controls were used to determine the cut-off point between background fluorescence and positive populations. […] The data was acquired with an Attune Nxt flow cytometer (Invitrogen) and analyzed by FCS Express 7 Research Edition.

[4] = molecular target: T4, mouse TfR overexpressed on CHO cells (mouse, UniProt Q62351 1-763); experiment: flow cytometry on CHO cells overexpressing mouse TfR (CHO-mTfR), VHH detected with anti-FLAG-iFluor647; median Flag-i647 intensity in total GFP cells
T4 construct: whole, on cells
T4 sequence (Q62351 whole entry): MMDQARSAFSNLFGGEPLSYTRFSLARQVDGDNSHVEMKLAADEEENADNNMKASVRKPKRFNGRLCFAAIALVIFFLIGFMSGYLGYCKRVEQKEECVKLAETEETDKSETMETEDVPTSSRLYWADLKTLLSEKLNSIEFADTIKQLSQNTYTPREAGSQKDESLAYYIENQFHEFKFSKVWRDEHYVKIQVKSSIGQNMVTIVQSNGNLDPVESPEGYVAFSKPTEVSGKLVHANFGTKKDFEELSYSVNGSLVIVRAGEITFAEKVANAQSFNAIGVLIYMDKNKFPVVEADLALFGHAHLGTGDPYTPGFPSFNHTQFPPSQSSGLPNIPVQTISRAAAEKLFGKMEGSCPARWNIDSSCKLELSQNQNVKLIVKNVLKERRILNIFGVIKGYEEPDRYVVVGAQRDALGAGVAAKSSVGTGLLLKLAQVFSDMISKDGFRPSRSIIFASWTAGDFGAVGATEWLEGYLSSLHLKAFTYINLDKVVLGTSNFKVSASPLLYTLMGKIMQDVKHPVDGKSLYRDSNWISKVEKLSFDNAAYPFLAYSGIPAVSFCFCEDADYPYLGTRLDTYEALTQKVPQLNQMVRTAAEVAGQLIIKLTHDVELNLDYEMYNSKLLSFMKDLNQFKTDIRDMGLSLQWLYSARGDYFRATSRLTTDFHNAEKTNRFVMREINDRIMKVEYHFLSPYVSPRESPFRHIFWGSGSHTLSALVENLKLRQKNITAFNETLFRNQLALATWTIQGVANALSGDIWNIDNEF
Experimental: as §3, §4

| Kd [1] [nM] | Kd [2] [nM] | EC50 (read off the curve) [3] [nM] | Binder | binding result [4] |
| --- | --- | --- | --- | --- |
| 207 | 104 | ~50 | BBB00533 (VHH, Lead VHH expressed in E. coli TG1 and purified by IMAC; detected with anti-FLAG antibody in flow cytometry; also called BBB00533 VHH; not shown: C-terminal 3xFlag/6xHis tag from expression vector pBDS119) VHH: QVQLQESGGGSVQPGGSLRLSCTASGRTFNYAMGWFRQAPGKNREFVATIDWKDGSSYYLDSVRGRFTIERDDAKNTVYLQMNSLKPEDAAVYTCAVGDGDYCSTYTCAAEVEYDYWGQGTQVTVSS | no binding (tested: Log10 Conc 3.5 (about 3000 nM)) |
| 1180 | 63 | ~50 | BBB00515 (VHH, Lead VHH expressed in E. coli TG1 and purified by IMAC; detected with anti-FLAG antibody in flow cytometry; also called BBB00515 VHH; not shown: C-terminal 3xFlag/6xHis tag from expression vector pBDS119) VHH: QVQLQESGGGLVQAGGSLRLSCAASGSIFSINAMGWYRQAPGKQRELVAVITSGGSTIYADSVKGRFTISRDNAENTVYLQMNSLKPEDTAVYYCNAHVGLKVPTIQELSLGFGSWGQGTQVTVSS | no binding (tested: Log10 Conc 3.5 (about 3000 nM)) |
